Laboratory results from PMC5842622, “The Entamoeba histolytica TBP and TRF1 transcription factors are GAAC-box binding proteins, which display differential gene expression under different stress stimuli and during the interaction with ma”.

Legend:
Conditions in all cases: protein: recombinant; tags: His tag; label: 5'-32P; blunt
[1] = target: T1, rEhTBP (TATA-box binding protein) (Entamoeba histolytica, UniProt P52653 1-234); experiment: EMSA; 4 C, 1 mM MgCl2; EMSA: 12 mM Hepes pH 7.9, 60 mM KCl, 1 mM each DTT, EDTA, spermidine and MgCl2, 10% glycerol, poly(dG-dC) 1 ug/ul, 10 min at 4 C; probe 557 pM (TATA), 64 pM (GAAC) or 82 pM (GAAC-like)
T1 sequence: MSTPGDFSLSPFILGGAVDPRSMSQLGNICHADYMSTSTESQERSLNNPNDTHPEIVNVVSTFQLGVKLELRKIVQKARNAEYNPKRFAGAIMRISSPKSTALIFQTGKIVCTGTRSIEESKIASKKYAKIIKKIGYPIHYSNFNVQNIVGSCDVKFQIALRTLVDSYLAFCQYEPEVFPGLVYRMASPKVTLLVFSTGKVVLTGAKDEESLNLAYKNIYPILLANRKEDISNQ

[2] = target: T2, rEhTRF1 (TBP-related factor 1) (Entamoeba histolytica, UniProt A7UFC2 1-216); experiment: as above
T2 sequence: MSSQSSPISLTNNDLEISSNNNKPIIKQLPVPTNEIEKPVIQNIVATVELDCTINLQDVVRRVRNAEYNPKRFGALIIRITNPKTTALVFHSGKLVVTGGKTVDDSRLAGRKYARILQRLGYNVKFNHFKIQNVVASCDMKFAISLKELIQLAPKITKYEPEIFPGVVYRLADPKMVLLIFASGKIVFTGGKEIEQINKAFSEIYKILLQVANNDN

[3] = target: T2, rEhTRF1 (TBP-related factor 1); experiment: EMSA; specifically competed; EMSA: 12 mM Hepes pH 7.9, 60 mM KCl, 1 mM each DTT, EDTA, spermidine and MgCl2, 10% glycerol, poly(dG-dC) 1 ug/ul, 10 min at 4 C; probe 557 pM (TATA), 64 pM (GAAC) or 82 pM (GAAC-like)
[4] = target: T1, rEhTBP (TATA-box binding protein); experiment: EMSA; complex barely competed by specific competitor; EMSA: 12 mM Hepes pH 7.9, 60 mM KCl, 1 mM each DTT, EDTA, spermidine and MgCl2, 10% glycerol, poly(dG-dC) 1 ug/ul, 10 min at 4 C; probe 557 pM (TATA), 64 pM (GAAC) or 82 pM (GAAC-like)

Row | Binder | Kd [1] [nM] | Kd [2] [nM] | binding result [3] | binding result [4] | binding result [1]
1 | TATTaAAA (4) (dsDNA) DNA 1: AATTCTCTATTAAAAGAGAATT DNA 2: AATTCTCTTTTAATAGAGAATT | 0.00485 | 0.00398 | – | – | –
2 | cAcTcAAA (8) (dsDNA) DNA 1: AATTCTCCACTCAAAGAGAATT DNA 2: AATTCTCTTTGAGTGGAGAATT | 0.038 | 0.0308 | – | – | –
3 | GAAC-like box (dsDNA) DNA 1: AGGCGAACTACAAAAGAT DNA 2: ATCTTTTGTAGTTCGCCT | – | – | binds | binds | –
4 | TATgTAAA (5) (dsDNA) DNA 1: AATTCTCTATGTAAAGAGAATT DNA 2: AATTCTCTTTACATAGAGAATT | 0.00169 | 0.00674 | – | – | –
5 | TATTggAA (3) (dsDNA) DNA 1: AATTCTCTATTGGAAGAGAATT DNA 2: AATTCTCTTCCAATAGAGAATT | 0.0357 | 0.0135 | – | – | –
6 | TAcTcAAA (7) (dsDNA) DNA 1: AATTCTCTACTCAAAGAGAATT DNA 2: AATTCTCTTTGAGTAGAGAATT | 0.00276 | 0.0298 | – | – | –
7 | TATTTAAA (1) (dsDNA) DNA 1: AATTCTCTATTTAAAGAGAATT DNA 2: AATTCTCTTTAAATAGAGAATT | 0.0207 | 0.0529 | – | – | –
8 | TAgTgAAA (2) (dsDNA) DNA 1: AATTCTCTAGTGAAAGAGAATT DNA 2: AATTCTCTTTCACTAGAGAATT | 0.0398 | 0.013 | – | – | –
9 | GAAC-box (wild type) (dsDNA) DNA 1: AAGACAATGAACTAGAATG DNA 2: CATTCTAGTTCATTGTCTT | 0.019 | 0.0794 | – | – | –
10 | gAgTTAAA (6) (dsDNA) DNA 1: AATTCTCGAGTTAAAGAGAATT DNA 2: AATTCTCTTTAACTCGAGAATT | 0.00473 | 0.00685 | – | – | –
11 | cAcTTAAA (9) (dsDNA) DNA 1: AATTCTCCACTTAAAGAGAATT DNA 2: AATTCTCTTTAAGTGGAGAATT | – | 0.00972 | – | – | no binding
12 | TATTTttt (10) (dsDNA) DNA 1: AATTCTCTATTTTTTGAGAATT DNA 2: AATTCTCAAAAAATAGAGAATT | 0.0034 | 0.0254 | – | – | –
